Laboratory results reported in US20060142171A1, “Novel alkaline protease” (priority 2003, published 2006).

Tests used:
casein = test: Protease activity with casein as substrate (specific activity, pH and temperature profile); type: biochemical; details: for Optimum pH for activity: assayed at 50° C.
Description: The AL protease activity with 0.1-4% (w/v) casein and haemoglobin (Sigma), respectively, as protein substrates, was determined using a modified method of Ferrero et al. (1996). The reaction mixture in a total volume of 1 ml containing the substrate and an appropriate amount of the enzyme in 50 mM glycine-NaOH buffer, pH 10 was incubated at […] for 20 min, after which the reaction was terminated by addition of 0.5 ml trichloroacetic acid with subsequent centrifugation. To 0.5 ml supernatant was added 2.5 ml sodium carbonate followed by 0.5 ml of 1 M Folin-Ciocalteau Phenol reagent (Sigma). The reaction mixture was allowed to stand for 30 min-at room temperature before absorbance was measured at 660 nm. One unit of enzyme activity is defined as amount of the enzyme, which released 1 μg tyrosine per minute under the assay conditions.
Protease activity was determined using casein as substrate as described earlier [3.12]. The reaction mixture in a total volume of 2 ml was composed of 1% casein, 50 mM glycine-NaOH buffer, pH 10, and appropriately diluted enzyme. After 20 min incubation at 50° C. the reaction was terminated by adding equal volume of 10% trichloroacetic acid (TCA). After separation of the unreacted casein precipitate by centrifugation, 0.5 ml of clear supernatant was mixed with 2.5 ml of 0.5 M Na2CO3 and 0.5 ml of 1 N Folin-Ciocalteau's phenol reagent. After 30 min at 25° C., absorbance was measured at 660 nm against a reagent blank. One unit of protease activity was defined as the amount of enzyme that released 1 μg of amino acid equivalent to tyrosine per min under the standard assay conditions.
Both proteases were optimally active in the alkaline region.
The effect of temperature on activity of the two proteases was determined by assaying enzyme activity at different temperatures in glycine-NaOH buffer, pH 10, while the thermal stability was determined by incubating the enzymes at different temperatures followed by measuring the residual activity under standard conditions. These measurements were done both in the presence and absence of 5 mM Ca^2+. […] Its optimum temperature for activity was at 70° C. (FIG. 9A), but when incubated at that temperature the enzyme was inactivated within 1 h (FIG. 10A). […] At temperature values above 50° C. Ca^2+ was absolutely required for the thermal stability of AL-89 protease (FIG. 10B).
Assay of protease activity was performed according to Ferrero et al. with some modifications. One millilitre of the reaction mixture containing 1% casein in 50 mM glycine-NaOH buffer, pH 10.0 and an appropriate amount of enzyme was incubated at 50° C. for 20 min after which the reaction was terminated by addition of 0.5 ml of trichloroacetic acid and centrifuged. 2.5 ml sodium carbonate was added to 0.5 ml supernatant followed by 0.5 ml of 1 M Folin-Ciocalteau reagent. The reaction mixture was allowed to stand for 30 min at room temperature before measuring the absorbance at 660 nm. One unit of protease activity was defined as the amount of enzyme, which released 1 μg tyrosine per min under standard assay conditions.

[1] = Circular dichroism spectroscopy; type: physicochemical
Description: The conformational stability of the AL protease was examined by circular dichroism (CD) spectroscopy and compared with that of Subtilisin Carlsberg (bacterial protease, type VIII; Sigma Chemical Co., St. Louis, USA). The CD spectra of the proteins were obtained on a Jasco spectropolarimeter model J-720, at 25° C. in the far UV range from 195 to 250 nm at a scan rate of 10 nm/min using a sample cell path length of 0.1 cm. The ellipticity values (θ) for every nm wavelength increase were obtained in mdeg directly from the instrument and were recorded online in a computer. An average of 6 scans was calculated and the corresponding no-enzyme spectra were subtracted for each sample.

[2] = Calcium content by ICP-SMS; type: physicochemical; details: after treatment with chelex
Description: One millilitre of the purified AL protease (3 mg protein) solution was dialyzed for 24 h at 4° C. against 1 L of 10 mM glycine-NaOH buffer, pH 10.0, pretreated for 48 h with Chelex 100 (BioRad, Hercules, Calif., USA; […]) placed in a dialysis bag. Thereafter the dialysis was repeated three times against the buffer containing Chelex 100 (1.5 g/l) for a total period of 36 h at 4° C. The buffer was prepared from deionised water and plastic containers were used throughout. The residual calcium content In the enzyme sample was determined using Inductively Coupled Plasma-Mass Spectrometry (ICP-SMS).

oxidized insulin B-chain = test: Hydrolysis of oxidized insulin B-chain (MALDI-TOF); type: biochemical; details: 50° C., enzyme-substrate molar ratio of 1:100, pH 9
Description: To 0.38 mg of the oxidized insulin B-chain (Sigma) dissolved in 1 ml of 10 mM Tris-HCl buffer, pH 9 was added 10 μl (5.5 units) of the AL enzyme. The mixture was incubated at 50° C. for 15 min and 12 h, respectively, after which one drop (approx 40 μl) of 0.1% (v/v) TFA was added to inactivate the enzyme.
Identification of the cleavage products was performed on a matrix assisted laser desorption ionisation reflectron-type time-of-flight (MALDI-TOF) mass spectrometer (REFLEX, Bruker-Franzen Analytik; Bremen, Germany).
Cleavage of oxidized insulin B-chain by the AL protease at 50° C. was investigated using an enzyme-substrate molar ratio of 1:100. The reaction products were analyzed by MALDI-TOF mass spectrometry and identified from the mass of corresponding peptide pairs.

elastin-orcein = test: Elastolytic activity; type: biochemical; details: 100 mM Tris-HCl buffer pH 8.8, 37° C.
Description: Elastolytic activity of AL protease was estimated by the method of (Tsai et al. 1983) with slight modification. The reaction mixture in a total volume of 1.5 ml comprised of 20 mg elastin-orcein and an appropriate amount of the enzyme in 100 mM Tris-HCl buffer pH 8.8, was incubated at 37° C. for 1 h with constant shaking. The substrate was removed by centrifugation and increase in optical density was measured at 590 nm. A control reaction was performed using the denatured enzyme as described above. The concentration of soluble products liberated was calculated from a standard curve using elastase. One unit was defined as the amount of enzyme, which solubilizes 100 μg of elastin under standard reaction conditions.

B1: AL protease: thermostable alkaline, non-Ca2+-dependent serine protease isolated from Nesterenkonia sp. nov. strain AL (DSM 15380); SEQ. ID. NO. 1 (protein, listed as Nesterenkonia sp.)
chain: QNPADSPHIGKVFFSTNQGDFVCSANIVASANQSTVATAGHCLHDGNGGQFARNFVFAPAYDYGESEHGVWAAEELVTSAEWANRGDFEHDYAFAVLETKGGTTVQQQVGTASPIAFNQPRGQYYSAYGYPAAAPFNGQELHSCHGTATNDPMGSSTQGIPCNMTGGSSGGPWFLGQGTGGAQNSVNSYGYTFLPDVMFGPYFGSGAQQNYNYAST
Time to complete hydrolysis of casein (casein; 50 mM glycine-NaOH, pH 10 at 50° C.): ≤ 20 min
Optimum pH for activity (casein): 10
Optimum pH for activity (casein; listed as alkaline protease from Nesterenkonia sp. nov. strain): 10
Activity as % of peak activity (casein; at pH 12): about 60%
Activity as % of maximum activity (casein; between pH 7.5 to 11.5): over 90%
Optimum temperature for activity (casein; glycine-NaOH buffer, pH 10, same in presence and absence of 5 mM Ca^2+): 70 °C
Specific activity (casein; purified enzyme, casein as substrate, pH 10, 50° C., listed as Nesterenkonia sp. AL protease): 1802.3 U/mg
Ca^2+ dependence of activity and stability (casein; with and without 5 mM Ca^2+, all temperatures tested): Ca^2+ independent
Secondary structure in the presence of SDS ([1]; 0.1-1% (w/v) SDS, data not shown): no alteration
Secondary structure after incubation ([1]; 24 h at 50° C., 10 mM glycine-NaOH buffer, pH 10.0): undisturbed
Ca^2+ content [2]: 0.109 mol/mol
Initial cleavage site in oxidized insulin B-chain (oxidized insulin B-chain): Leu^15-Ty^16
Hydrolysis of elastin-orcein (elastin-orcein): able to hydrolyse elastin-orcein to a detectable level
